According to patent publication US20170233490A1 (Hoffmann-La Roche, published 2017):

Tests used:
HER4 ECD-HRG complex = target: T1, HER4 ECD-HRG complex (human, UniProt Q15303 26-651); assay: SPR Biacore 3000, 37 C
T1 construct: HER4 ECD preincubated with a 5-fold molar excess of Heregulin
T1 sequence 1: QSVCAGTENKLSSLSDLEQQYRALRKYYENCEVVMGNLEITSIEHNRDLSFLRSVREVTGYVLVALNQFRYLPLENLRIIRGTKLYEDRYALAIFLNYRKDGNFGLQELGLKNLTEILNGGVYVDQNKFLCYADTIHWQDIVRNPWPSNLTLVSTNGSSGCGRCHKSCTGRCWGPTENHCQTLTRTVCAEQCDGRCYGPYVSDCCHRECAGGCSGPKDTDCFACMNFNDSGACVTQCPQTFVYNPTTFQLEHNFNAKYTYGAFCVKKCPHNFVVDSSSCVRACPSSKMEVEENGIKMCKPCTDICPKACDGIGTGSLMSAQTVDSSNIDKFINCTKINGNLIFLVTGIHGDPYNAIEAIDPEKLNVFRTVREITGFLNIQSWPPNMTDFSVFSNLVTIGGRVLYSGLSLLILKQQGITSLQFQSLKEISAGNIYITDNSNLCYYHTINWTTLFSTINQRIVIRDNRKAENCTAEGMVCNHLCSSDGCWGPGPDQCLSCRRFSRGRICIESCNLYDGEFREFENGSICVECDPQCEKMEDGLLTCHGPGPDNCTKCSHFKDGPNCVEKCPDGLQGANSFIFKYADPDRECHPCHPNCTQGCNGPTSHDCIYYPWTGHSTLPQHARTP
T1 sequence 2: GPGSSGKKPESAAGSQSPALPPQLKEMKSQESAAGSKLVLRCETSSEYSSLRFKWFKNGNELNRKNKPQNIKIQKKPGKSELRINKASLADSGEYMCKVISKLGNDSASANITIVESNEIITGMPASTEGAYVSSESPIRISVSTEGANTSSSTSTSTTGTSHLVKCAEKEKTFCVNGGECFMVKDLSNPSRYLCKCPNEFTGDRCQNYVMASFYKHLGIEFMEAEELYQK

[1] = target: T2, human HER3 Extracellular Domain (ECD) (human, UniProt P21860 20-643); assay: SPR Biacore 3000, 37 C
T2 construct: human recombinant, 68 kDa; 'closed' conformation without ligand; also called Her3 ECD; Her-3 ECD

HER3 ECD-HRG complex = target: T3, HER3 ECD-HRG complex (human, UniProt P21860 20-643); assay: SPR Biacore 3000, 37 C
T3 construct: HER3 ECD preincubated with a 3- to 6-fold molar excess of Heregulin ('open' conformation); biotinylated Her3-ECD in the ribosome display; also called HER3-ECD/HRG1β

TgSlyDser-Her3 = target: T4, TgSlyDser-Her3; assay: ELISA, coated antigen
T4 chain: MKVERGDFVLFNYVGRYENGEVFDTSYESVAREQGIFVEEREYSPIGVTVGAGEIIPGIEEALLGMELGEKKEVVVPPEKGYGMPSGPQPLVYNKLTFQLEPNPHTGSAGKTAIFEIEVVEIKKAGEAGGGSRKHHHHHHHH
Description: (§1) For the ELISA the screening an antigen down format was used. […] Hybridoma Supernatant was added to the plates and incubated for 1 h at room temperature. Bound antibody was detected with a HRP-labeled F(ab′)₂ goat anti-mouse Fcγ (Dianova) and ABTS (Roche) was used as a HRP-substrate.
(§2) As negative controls the scaffold proteins TtSlyDcas and TgSlyDΔIF were used.

TgSlyDΔIF = target: T5, TgSlyDΔIF; assay: ELISA, coated antigen
T5 construct: scaffold without hairpin insert, negative control
T5 chain: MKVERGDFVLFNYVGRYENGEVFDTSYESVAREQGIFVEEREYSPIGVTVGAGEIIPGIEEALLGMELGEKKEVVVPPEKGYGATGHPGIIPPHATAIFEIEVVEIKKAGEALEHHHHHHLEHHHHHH
Description: as §1, §2

TgSlyDcys-Her3 = target: T6, TgSlyDcys-Her3; assay: ELISA, coated antigen
T6 chain: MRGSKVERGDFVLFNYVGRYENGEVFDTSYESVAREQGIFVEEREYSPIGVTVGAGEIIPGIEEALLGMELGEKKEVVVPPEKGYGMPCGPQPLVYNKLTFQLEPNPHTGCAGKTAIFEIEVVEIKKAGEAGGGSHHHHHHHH
Description: as §1, §2

[2] = target: T7, human HER1 Extracellular Domain (ECD) (human, UniProt P00533 25-645); assay: ELISA, coated antigen
T7 construct: also called Her1 ECD; HER1-ECD
Description: as §1, §2

[3] = target: T8, human HER4 Extracellular Domain (ECD) (human, UniProt Q15303 26-651); assay: SPR Biacore T100, antibody captured, 25 C; SPR at 25 C, antibody captured, HER4-ECD without HRG
T8 construct: also called Her4 ECD; HER4-ECD
T8 sequence: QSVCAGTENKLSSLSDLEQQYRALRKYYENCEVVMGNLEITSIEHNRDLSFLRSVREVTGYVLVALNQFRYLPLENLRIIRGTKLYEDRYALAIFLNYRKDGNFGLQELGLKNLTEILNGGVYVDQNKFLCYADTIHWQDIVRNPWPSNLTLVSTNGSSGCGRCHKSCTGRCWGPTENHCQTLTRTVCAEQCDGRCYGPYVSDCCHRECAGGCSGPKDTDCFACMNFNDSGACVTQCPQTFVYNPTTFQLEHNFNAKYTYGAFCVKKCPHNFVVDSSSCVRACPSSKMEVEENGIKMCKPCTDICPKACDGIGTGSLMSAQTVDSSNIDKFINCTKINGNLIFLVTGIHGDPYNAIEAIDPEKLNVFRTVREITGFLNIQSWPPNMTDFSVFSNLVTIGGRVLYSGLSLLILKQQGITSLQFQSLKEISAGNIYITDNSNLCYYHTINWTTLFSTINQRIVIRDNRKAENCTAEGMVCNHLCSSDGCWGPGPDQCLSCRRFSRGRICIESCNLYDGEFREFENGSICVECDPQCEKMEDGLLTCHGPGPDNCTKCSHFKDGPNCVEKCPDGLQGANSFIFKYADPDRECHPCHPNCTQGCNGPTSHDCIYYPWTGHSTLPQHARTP
Description: A CM5 series sensor was mounted into the system and was normalized in HBS-ET buffer (10 mM HEPES pH 7.4, 150 mM NaCl, 3 mM EDTA, 0.005% w/v Tween 20) according to the manufacturer's instructions. The sample buffer was the system buffer supplemented with 1 mg/ml CMD (Carboxymethyldextran, Sigma #86524). The system operated at 25° C. 6500 RU RAM-Fcγ (relative units of Fcγ-fragment RamIgG, GE Healthcare) were immobilized according to the manufacturer's instructions using EDC/NHS chemistry on all four flow cells. The sensor was deactivated using 1M ethanolamine.
The binding activity of the respective antibody against the analytes was kinetically tested. Antibodies were captured at 35 nM concentration by a 1 min injection at 5 μl/min. The flow rate was set to 100 μl/min.
Analytes in solution were injected at different concentration steps of 0 nM, 1.1 nM, 3.7 nM, 11.1 nM, 33.1 nM and 90 nM for 3.5 min. The dissociation was monitored for 15 min. Where possible, kinetic signatures were evaluated according to a Langmuir fit.

B1: anti-HER3/HER4 antibody M-05-74 (antibody, V domains shown)
VH: QVQLQQSGAELAKPGASVKMSCKTSGYTLTDYWIHWVKQRPGQGLEWIGYINPYTGYTESNQKFKDKATLTADKSSNTAYIQLSSLTSEDSAVYYCARPYYYGDYWGQGTTLTVSS
VL: QIVLTQSPAIMSASPGERVTITCSASSSVSYMHWFQQKPGTSPKLLIYSTSNLASGVPARFSGSGSGTSYSLTISRMEAEDAATYYCQQRSSYPFTFGSGTKLEIK
notes: murine monoclonal IgG from hybridoma (supernatant or purified), bivalent; also called M-074; M-5-74
Binder B1 has a Kd (HER4 ECD-HRG complex) of 6 nM, an MR (HER4 ECD-HRG complex) of 0.9 and a koff (HER4 ECD-HRG complex) of 0.0033 s⁻¹. For the same binder, the kon (HER4 ECD-HRG complex) was 580000 M⁻¹ s⁻¹, the t/2diss (HER4 ECD-HRG complex) was 4 min and the Kd [1] was 4 nM. For the same binder, the MR [1] was 0.6, the koff [1] was 8.1e-05 s⁻¹ and the kon [1] was 21000 M⁻¹ s⁻¹. For the same binder, the t/2diss [1] was 144 min, the Kd (HER3 ECD-HRG complex) was 7 nM and the MR (HER3 ECD-HRG complex) was 0.7. It also gave a koff (HER3 ECD-HRG complex) of 0.00057 s⁻¹, a kon (HER3 ECD-HRG complex) of 79000 M⁻¹ s⁻¹ and a t/2diss (HER3 ECD-HRG complex) of 20 min. For the same binder, the ELISA signal (TgSlyDser-Her3) was 3.16, the ELISA signal (TgSlyDΔIF) was 0.02 and the ELISA signal (TgSlyDcys-Her3) was 3.16. The ELISA signal [2] was 0.018, the Kd [3] was 150 nM and the koff [3] was 0.001 s⁻¹. The kon [3] was 6700 M⁻¹ s⁻¹.
